The record followed here is article PMC4598844, “BAP1 promotes breast cancer cell proliferation and metastasis by deubiquitinating KLF5” (Nature Communications, 2015).

This assay has as its target T1, GST-BAP1, purified recombinant (human, UniProt Q92560 1-729).
T1 construct: BRCA1-associated protein 1 (BAP1), human, wild type, cloned from MCF10A cells into pGEX-6p-1; also called purified GST-BAP1; source: E. coli BL21 (DE3), purified (glutathione sepharose 4B)
T1 sequence (looked up): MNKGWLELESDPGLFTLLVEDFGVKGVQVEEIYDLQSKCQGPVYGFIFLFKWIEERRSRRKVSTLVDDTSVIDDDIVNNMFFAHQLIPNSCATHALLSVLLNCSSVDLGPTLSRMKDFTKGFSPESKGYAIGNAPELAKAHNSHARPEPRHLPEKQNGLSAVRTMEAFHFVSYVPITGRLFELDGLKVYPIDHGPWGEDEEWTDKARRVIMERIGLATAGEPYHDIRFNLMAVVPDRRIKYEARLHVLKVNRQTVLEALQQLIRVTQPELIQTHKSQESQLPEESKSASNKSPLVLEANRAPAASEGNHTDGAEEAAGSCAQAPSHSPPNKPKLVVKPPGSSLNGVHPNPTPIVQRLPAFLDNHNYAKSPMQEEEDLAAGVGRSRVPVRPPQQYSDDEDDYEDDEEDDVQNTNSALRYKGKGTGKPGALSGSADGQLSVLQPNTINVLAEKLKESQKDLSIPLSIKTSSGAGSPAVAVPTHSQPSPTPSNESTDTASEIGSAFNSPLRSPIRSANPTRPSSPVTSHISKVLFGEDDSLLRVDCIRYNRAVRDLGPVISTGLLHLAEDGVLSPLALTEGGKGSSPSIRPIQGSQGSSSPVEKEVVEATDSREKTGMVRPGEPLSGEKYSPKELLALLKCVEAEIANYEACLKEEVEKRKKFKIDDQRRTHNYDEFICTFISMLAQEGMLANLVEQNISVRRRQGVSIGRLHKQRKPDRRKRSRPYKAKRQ
As to the kind of experiment: pull-down; purified recombinant GST-BAP1 (and GST) pulled down with glutathione beads; KLF5-6 × His detected by WB. The following applies: both partners purified.

B1: KLF5-6 × His, purified recombinant (natural protein)
chain: not shown
notes: Krüppel-like zinc-finger transcription factor 5 (KLF5), subcloned into the pET28-3C vector; The tag is printed after the protein's name; not repeated for this construct; source: E. coli BL21 (DE3), purified (Ni-NTA)
Consider B1, for which the binding result was “binds”.
